Experiments:
[1] = Stability of thermostable 1,5-AG dehydrogenase at heat treatment temperature (rate of residual activity); format: physicochemical; conditions: for Rate of residual activity after 10-minute treatment at 60° C.: water bath 60° C.; for Rate of residual activity after 10-minute treatment at 45° C.: water bath 45° C.; for Rate of residual activity after 10-minute treatment at 50° C.: water bath 50° C.
Experimental: (§1) The E. coli JM109 containing the gene encoding each thermostable 1,5-AG dehydrogenase obtained in the paragraphs to [4] of EXAMPLE 2 was transplanted to 10 mL of an LB liquid medium containing 50 μg/mL ampicillin and 0.1 mM IPTG and shake-cultured at 30° C. for 16 hours. 10 mL of the shake-culture solution was centrifuged at 10000 rpm for 5 minutes. The culture supernatant was removed, and the pellet was then washed twice with a 0.85% aqueous NaCl solution. These microbial cells were suspended in 1 mL of a 50 mM sodium phosphate buffer (pH 7.5) containing 0.25% Triton X-100. The microbial cells were disrupted using a bead impact-type cell disrupter MINI-BEAD BEATER (30 seconds×4, manufactured by Central Scientific Commerce, Inc.) while cooled in ice. After centrifugation at 15000 rpm for 10 minutes, the supernatant was used as a crude enzyme solution. When the crude enzyme solution was heat-treated, the treatment was performed for 10 minutes in a water bath of 45° C., 50° C., 55° C. or 60° C.
(§2) The enzymatic activity of the 1,5-AG dehydrogenase was calculated by measurement by the same approach as that described in the paragraph (J) of EXAMPLE 1.
(§3) A specific activity that represents the enzymatic activity of the 1,5-AG dehydrogenase per mg of the crude enzyme solution was calculated according to the following equation: Specific activity (U/mg)=enzymatic activity (U/mL)/protein concentration of crude enzyme solution (mg/mL). Moreover, the rate of residual activity was calculated according to the following equation: Rate of residual activity (%)=(specific activity of crude enzyme solution after heat treatment/specific activity of crude enzyme solution before heat treatment)×100.

[2] = 1,5-AG dehydrogenase activity determination of crude enzyme solution (L-sorbose, DCIP, 1-m-PMS, decrease in absorbance at 600 nm); format: biochemical; conditions: L-sorbose as substrate, 37° C.; for Specific activity: crude enzyme solution
Experimental: The E. coli JM109 strains transformed with the pTrc-PS15DH vectors confirmed in the paragraph (I) to have the insert fragment were inoculated to 3 mL of an LB medium containing 100 μg/mL ampicillin and cultured at 28° C. for 14 hours. Of this culture solution, a 0.2 mL aliquot was inoculated to 10 mL of an LB medium (containing 100 μg/mL ampicillin). Approximately 3 hours later, the rise of OD600 of the culture solution to 0.4 to 0.7 was confirmed, and 1,5-AG dehydrogenase expression in E. coli was then induced by the addition of 0.1 M IPTG (final concentration: 0.1 mM) to the medium. This culture solution was further cultured overnight at 28° C. and centrifuged at 10000×g for 5 minutes to precipitate cells. The supernatant was removed, and the pellet was then washed twice with a 0.85% aqueous NaCl solution. Cells were precipitated by centrifugation. Then, the microbial cells were suspended in 1 mL of a 50 mM sodium phosphate buffer, pH 7.5. Triton X-100 was added thereto at a concentration of 0.25%, and the microbial cells were disrupted using a bead impact-type cell disrupter MINI-BEAD BEATER (30 seconds×4, manufactured by Central Scientific Commerce, Inc.) while cooled in ice. After centrifugation at 20000×g for 10 minutes, the supernatant was examined as a crude enzyme solution for its 1,5-AG dehydrogenase activity. The composition of the reaction solution is as described below. Since the 1,5-AG dehydrogenase also reacts with L-sorbose as its substrate, L-sorbose was used for convenience instead of 1,5-AG in the enzymatic activity determination.
Composition of Reaction Solution:
The components other than the crude enzyme solution are mixed and kept at 37° C. for 10 minutes. Then, the crude enzyme solution is added to the reaction solution to initiate reaction. Decrease in absorbance at 600 nm for 1 minute with the temperature kept at 37° C. is determined.
The enzymatic activity can be determined according to the following equation: Enzymatic activity (U/mL)=(Δ600/min×0.6 (mL)×dilution ratio of crude enzyme solution)/(16.3×0.01 (mL)).
as §1, §2, §3
The 1,5-AG dehydrogenase activity was determined based on the method described in EXAMPLE 1, and its specific activity was determined according to the equation described in EXAMPLE 3.

[3] = crude enzyme solution, 10 minutes

B1: Ver. 11.1: thermostable 1,5-AG dehydrogenase; SEQ ID NO: 1 having an arginine residue in place of proline at position 156 (protein)
chain: MEFAGQPDIVIIGTGIGGASIAAGLSASGADILILERGESLPDRPENRDQHAIFQRGFFRPKEFWYGTDGTPFNPGNYYYVGGNSKFYGAVLMRYRREDFEELAHLEGVSPAWPFAYDELEPWYCKAEELFQVRGELGDDPTEPYHSKPYSYPAIRDESPIADMRARLKKAGLHPASLPLGVDIERWLAKAKTPWDAHPNSDDGKMDAETCPLALALKHPNVGLETSARVTKLEAGPDGKTIVAVHYVKNGEALVLRPKLVILSAGAVQSAALLLRSGLANRSDQVGRNFMNHNASAVIGFDPRYRNDSVYQKTFGFNDYYLSDGAGGPPLGNVQLLGRVSGAILKSYMRQVPEWFLNRIARHTIDFYAMSEDLPSPESRVSVDGDRIILHWVRSNWKAHLMLVDKLKSALRAAGFPVVLSRAFDRRTPSHQCGTVRIGDNPATAPLDPYCRAYDHPNLYVVDASFLPTSAAANPALTIAAQALRVADHLNREVLA
modifications: Protein expressed by mutated 1,5-anhydroglucitol dehydrogenase gene
Which results are given for B1?
Rate of residual activity after 10-minute treatment at 60° C. [1, 3]: 73%; Specific activity [2]: 0.8 U/mg

B2: Ver. 12.0: thermostable 1,5-AG dehydrogenase comprising the amino acid sequence represented by SEQ ID NO: 1 (protein)
chain: MEFAGQPDIVIIGTGIGGASIAAGLSASGADILILERGESLPDRPENRDQHAIFQRGFFRPKEFWYGTDGTPFNPGNYYYVGGNSKFYGAVLMRYRREDFEELAHLEGVSPAWPFAYDELEPWYCKAEELFQVRGELGDDPTEPYHSKPYSYPAIPDESPIADMRARLKKAGLHPASLPLGVDIERWLAKAKTPWDAHPNSDDGKMDAETCPLALALKHPNVGLETSARVTKLEAGPDGKTIVAVHYVKNGEALVLRPKLVILSAGAVQSAALLLRSGLANRSDQVGRNFMNHNASAVIGFDPRYRNDSVYQKTFGFNDYYLSDGAGGPPLGNVQLLGRVSGAILKSYMRQVPEWFLNRIARHTIDFYAMSEDLPSPESRVSVDGDRIILHWVRSNWKAHLMLVDKLKSALRAAGFPVVLSRAFDRRTPSHQCGTVRIGDNPATAPLDPYCRAYDHPNLYVVDASFLPTSAAANPALTIAAQALRVADHLNREVLA
modifications: Protein expressed by mutated 1,5-anhydroglucitol dehydrogenase gene
With B2 as the molecule, how does the “Rate of residual activity after 10-minute treatment at 60° C.” value [1, 3] read?
The value was 76%.

And the Specific activity [2]?
The Specific activity was 1.2 U/mg.

B3: Ver. 0: recombinant parent strain (Pseudomonas sp. NK-85001)-derived 1,5-AG dehydrogenase, SEQ ID NO: 4, no thermostability (protein)
chain: MEFGGQPDIVIIGSGIGGASIAAGLSASGADILILEAGESLPDRPENRDPHAIFQRGFFRPKEFWYETDGTPFNPGNYYNVGGNSKFYGAVLVRYRREDFEELAHLEGVSPAWPFAYDELEPWYCKAEELFQVRGELGDDPTEPYHSKPYSYPAIRDESPIADLRARLKKAGLHPASLPLGVDIERWLAKAKTPWDAHPNSNDGKMDAETCPLALALKHPNVGLETSARVTKLETGPDGKTIVAVHYVKNGEALVLRPKLVILSAGAVQSAALLLRSGLANRSDQVGRNFMNHNASAVIGFDPRYRNDSVYQKTFGFNDYYLSDGAGGPPLGNVQLLGRVSGAILKSNMRQVPEWFLNRIAGHTIDFYAMSEDLPSPESRVSVDGDRIILHWVRSNWKAHLMLVDKLKSALRAAGFPVVLSRAFDRRTPSHQCGTVRIGDNPATAPLDPYCRAYDHPNLYVVDASFLPTSAAVNPALTIAAQALRVADHLNREVLA
modifications: Pseudomonas sp. NK-85001
Which “Rate of residual activity after 10-minute treatment at 45° C.” value [1, 3] does the source give for B3 here?
Its value is 3.0%.

What about the “Enzymatic activity of the crude enzyme solution” value ([2]; E. coli JM109 / pTrc-PS15DH) of the same molecule?
Its value is 4.4 U/mL.

And the Specific activity [2]?
Its Specific activity is 1.2 U/mg.

B4: Ver. 7.1: thermostable 1,5-AG dehydrogenase, SEQ ID NO: 23; Ver. 7.0 plus G4A (protein)
chain: MEFAGQPDIVIIGTGIGGASIAAGLSASGADILILETGESLPDRPENRDQHAIFQRGFFRPKEFWYETDGTPFNPGNYYNVGGNSKFYGAVLMRYRREDFEELAHLEGVSPAWPFAYDELEPWYCKAEELFQVRGELGDDPTEPYHSKPYSYPAIRDESPIADMRARLKKAGLHPASLPLGVDIERWLAKAKTPWDAHPNSNDGKMDAETCPLALALKHPNVGLETSARVTKLEAGPDGKTIVAVHYVKNGEALVLRPKLVILSAGAVQSAALLLRSGLANRSDQVGRNFMNHNASAVIGFDPRYRNDSVYQKTFGFNDYYLSDGAGGPPLGNVQLLGRVSGAILKSYMRQVPEWFLNRIARHTIDFYAMSEDLPSPESRVSVDGDRIILHWVRSNWKAHLMLVDKLKSALRAAGFPVVLSRAFDRRTPSHQCGTVRIGDNPATAPLDPYCRAYDHPNLYVVDASFLPTSAAVNPALTIAAQALRVADHLNREVLA
modifications: Mutated 1,5-anhydroglucitol dehydrogenase gene
notes: Ver; 7.0 plus G4A
Which results are given for B4?
Rate of residual activity after 10-minute treatment at 45° C. [1, 3]: 89.0%; Rate of residual activity after 10-minute treatment at 50° C. [1, 3]: 61.0%; Rate of residual activity after 10-minute treatment at 55° C. ([1]; crude enzyme solution, water bath 55° C., 10 minutes): 10.0%; Specific activity [2]: 2.8 U/mg

B5: Ver. 3.2: thermostable 1,5-AG dehydrogenase, protein 17); net vs SEQ ID NO: 4: A37T, P50Q, L164M, G362R (protein)
chain: MEFGGQPDIVIIGSGIGGASIAAGLSASGADILILETGESLPDRPENRDQHAIFQRGFFRPKEFWYETDGTPFNPGNYYNVGGNSKFYGAVLVRYRREDFEELAHLEGVSPAWPFAYDELEPWYCKAEELFQVRGELGDDPTEPYHSKPYSYPAIRDESPIADMRARLKKAGLHPASLPLGVDIERWLAKAKTPWDAHPNSNDGKMDAETCPLALALKHPNVGLETSARVTKLETGPDGKTIVAVHYVKNGEALVLRPKLVILSAGAVQSAALLLRSGLANRSDQVGRNFMNHNASAVIGFDPRYRNDSVYQKTFGFNDYYLSDGAGGPPLGNVQLLGRVSGAILKSNMRQVPEWFLNRIARHTIDFYAMSEDLPSPESRVSVDGDRIILHWVRSNWKAHLMLVDKLKSALRAAGFPVVLSRAFDRRTPSHQCGTVRIGDNPATAPLDPYCRAYDHPNLYVVDASFLPTSAAVNPALTIAAQALRVADHLNREVLA
modifications: Pseudomonas sp. NK-85001
With B5 as the molecule, how does the “Thermostability compared with the version(s) it was prepared from” value ([1]; Ver. 4.0 vs Ver. 3.2, Ver. 3.2 vs Ver. 3.0 and Ver. 3.1) read?
Its value is “improved thermostability”.

What about the “Rate of residual activity after 10-minute treatment at 45° C.” value [1, 3] of the same molecule?
The value was 68.0%.

And the “Rate of residual activity after 10-minute treatment at 50° C.” value [1, 3]?
Its value is 14.0%.

And the Specific activity [2]?
Its Specific activity is 2.0 U/mg.
